According to PMC9636186 (Nature Communications, 2022):

Molecular target: ItcR itaconate-binding domain (IBD) (ItcR truncation of residues 80-292)
Assay: SEC-MALS

Substance: ItcR itaconate-binding domain (IBD) (ItcR truncation of residues 80-292) (domain or fragment)
- stoichiometry N: 2
